Results reported in patent US20100143349A1 (Pfizer, published 2010).

How the values were obtained:
hRAGE-Fc [1] = target: T1, hRAGE-Fc (human, UniProt Q15109 23-342, biotin label in the selections and HTRF assays); assay: IC50 of parental M4 scFv over IC50 of clone, HTRF competition
T1 construct: extracellular domain; also called biotin labeled hRAGE-Fc; Biotin-labeled RAGE-Fc; not shown: Fc part
Description: (§1) Increases in binding to RAGE antigen were detected with the aid of a competition assay using parental XT-M4 antibody. Both phage display and ribosome display libraries were selected for affinity improved variants by incubating with biotin labeled hRAGE-Fc, recovering binding clones using streptavidin magnetic beads and washing away non binding variants. Sequential rounds of selection were carried on decreasing antigen concentrations to drive the preferential recovery of higher affinity variants. Clones recovered after selection were subsequently screening for improved binding to hRAGE-Fc using HTRF. This is an assay that measures the decrease in fluorescence upon binding of parental europium cryptate-labeled XT-M4 to RAGE in the presence of competing test scFv antibodies. In these assays, periplasmic preparations of scFv were prepared from bacterial cultures and added in increasing concentrations to a combination of parental antibody and antigen. The ability of the scFV to compete with parental XT-M4 antibody to bind to Biotin-labeled RAGE-Fc was determined. In the presence of avidin-XL665 complex labeled XT-M4 bound to biotinylated RAGE-FC was detected by Fluorescence. Increasing amounts of scFv that competed with the XT-M4 for binding to biotinylated-RAGE-Fc was detected as a decrease in fluorescence. A sequential process of screening was used to focus in on a smaller number of clones with the greatest competition in HTRF assay

hRAGE-Fc [2] = target: T1, hRAGE-Fc; assay: HTRF competition, scFv vs labelled parental XT-M4 (competitor) on biotin hRAGE-Fc
Description: as §1

hRAGE-Fc [3] = target: T1, hRAGE-Fc; assay: HTRF competition, scFv vs labelled parental XT-M4 (competitor) on hRAGE
Description: as §1

T1 sequence (Q15109 23-342): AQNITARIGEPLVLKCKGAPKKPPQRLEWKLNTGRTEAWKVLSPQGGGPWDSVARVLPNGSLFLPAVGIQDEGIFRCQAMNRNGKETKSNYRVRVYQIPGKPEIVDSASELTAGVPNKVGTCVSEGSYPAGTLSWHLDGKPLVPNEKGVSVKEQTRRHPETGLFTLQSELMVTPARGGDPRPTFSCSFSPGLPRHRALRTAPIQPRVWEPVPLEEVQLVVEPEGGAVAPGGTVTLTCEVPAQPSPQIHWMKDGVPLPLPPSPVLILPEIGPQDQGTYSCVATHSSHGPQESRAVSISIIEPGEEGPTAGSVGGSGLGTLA

B1: 3A6 scFv (scFv)
scFv: DIQMTQSPSSLSASVGDRVTITCRASQDVGIYVNWFQQKPGKAPRRLIYRATNLADGVPSRFSGSRSGTDFTLTISSLQPEDFATYYCLEFDEHPLTFGGGTKVEIKDGGGSGGGGSGGGGSSEVQLVESGGGLVQPGGSLRLSCAASGFTFNNYWMTWVRQAPGKGLEWVASIDNSGDNTYYPDSVKDRFTISRDNAKNSLYLQMNSLRAEDTAVYYCARGGDILVSLDVWGQGTLVTVSS
hRAGE-Fc [1]
  Fold gain scFv (hRAGE): 70 fold
hRAGE-Fc [2]
  IC50: 0.474 nM
hRAGE-Fc [3]
  IC50: 0.47 nM

B2: 3C6 scFv (scFv)
scFv: DIQMTQSPSSLSASVGDRVTITCRASQDVGIYVNWFQQKPGKAPRRLIYRATNLADGVPSRFSGSRSGTDFTLTISSLQPEDFATYYCLEFDEHPLTFGGGTKVEIKDGGGSGGGGSGGGGSSEVQLVESGGGLVQPGGSLRLSCAASGFTFNNYWMTWVRQAPGKGLEWVASIDNSGDNTYYPDSVKDRFTISRDNAKNSLYLQMNSLRAEDTAVYYCARGGDIVVGLDHWGQGTLVTVSS
hRAGE-Fc [2]
  IC50: 1.26 nM

B3: 6E3 scFv (scFv)
scFv: DIQMTQSPSSLSASVGDRVTITCRASQDVGIYVNWFQQKPGKAPRRLIYRATNLADGVPSRFSGSRSGTDFTLTISSLQPEDFATYYCLEFDEHPLTFGGGTKVEIKDGGGSGGGGSGGGGSSEVQLVESGGGLVQPGGSLRLSCAASGFTFNNYWMTWVRQAPGKGLEWVASIDNSGDNTYYPDSVKDRFTISRDNAKNSLYLQMNSLRAEDTAVYYCARGGDIRVSLDFWGQGTLVTVSS
hRAGE-Fc [2]
  IC50: 1.75 nM

B4: 6A12 scFv (scFv)
scFv: DIQMTQSPSSLSASVGDRVTITCRASQDVGIYVNWFQQKPGKAPRRLIYRATNLADGVPSRFSGSRSGTDFTLTISSLQPEDFATYYCLQYDAHPLTFGGGTKVEIKDGGGSGGGGSGGGGSSEVQLVESGGGLVQPGGSLRLSCAASGFTFNNYWMTWVRQAPGKGLEWVASIDNSGDNTYYPDSVKDRFTISRDNAKNSLYLQMNSLRAEDTAVYYCARGGDITTGFDYWGQGTLVTVSS
hRAGE-Fc [2]
  IC50: 8.27 nM

B5: 3E8 scFv (scFv)
scFv: DIQMTQSPSSLSASVGDRVTITCRASQDVGIYVNWFQQKPGKAPRRLIYRATNLADGVPSRFSGSRSGTDFTLTISSLQPEDFATYYCLQFDVHPLTFGGGTKVEIKDGGGSGGGGSGGGGSSEVQLVESGGGLVQPGGSLRLSCAASGFTFNNYWMTWVRQAPGKGLEWVASIDNSGDNTYYPDSVKDRFTISRDNAKNSLYLQMNSLRAEDTAVYYCARGGDITTGFDYWGQGTLVTVSS
hRAGE-Fc [2]
  IC50: 7.21 nM

B6: 3B2 scFv (scFv)
scFv: DIQMTQSPSSLSASVGDRVTITCRASQDVGIYVNWFQQKPGKAPRRLIYRATNLADGVPSRFSGSRSGTDFTLTISSLQPEDFATYYCLEFDEHPLTFGGGTKVEIKDGGGSGGGGSGGGGSSEVQLVESGGGLVQPGGSLRLSCAASGFTFNNYWMTWVRQAPGKGLEWVASIDNSGDNTYYPDSVKDRFTISRDNAKNSLYLQMNSLRAEDTAVYYCARGGDILVGLDYWGQGTLVTVSS
hRAGE-Fc [1]
  Fold gain scFv (hRAGE): 35.8 fold
hRAGE-Fc [2]
  IC50: 0.917 nM
hRAGE-Fc [3]
  IC50: 0.92 nM

B7: 6C10 scFv (scFv)
scFv: DIQMTQSPSSLSASVGDRVTITCRASQDVGIYVNWFQQKPGKAPRRLIYRATNLADGVPSRFSGSRSGTDFTLTISSLQPEDFATYYCLQFDEHPLTFGGGTKVEIKDGGGSGGGGSGGGGSSEVQLVESGGGLVQPGGSLRLSCAASGFTFNNYWMTWVRQAPGKGLEWVASIDNSGDNTYYPDSVKDRFTISRDNAKNSLYLQMNSLRAEDTAVYYCARGGDITTGFDYWGQGTLVTVSS
hRAGE-Fc [2]
  IC50: 7.38 nM

B8: 3G8 scFv (scFv)
scFv: DIQMTQSPSSLSASVGDRVTITCRASQDVGIYVNWFQQKPGKAPRRLIYRATNLADGVPSRFSGSRSGTDFTLTISSLQPEDFATYYCLQYDAHPLTFGGGTKVEIKDGGGSGGGGSGGGGSSEVQLVESGGGLVQPGGSLRLSCAASGFTFNNYWMTWVRQAPGKGLEWVASIDNSGDNTYYPDSVKDRFTISRDNAKNSLYLQMNSLRAEDTAVYYCARGGDITTGFDYWGQGTLVTVSS
hRAGE-Fc [2]
  IC50: 8.08 nM

B9: 3B9 scFv (scFv)
scFv: DIQMTQSPSSLSASVGDRVTITCRASQDVGIYVNWFQQKPGKAPRRLIYRATNLADGVPSRFSGSRSGTDFTLTISSLQPEDFATYYCLQFDNHPLTFGGGTKVEIKDGGGSGGGGSGGGGSSEVQLVESGGGLVQPGGSLRLSCAASGFTFNNYWMTWVRQAPGKGLEWVASIDNSGDNTYYPDSVKDRFTISRDNAKNSLYLQMNSLRAEDTAVYYCARGGDITTGFDYWGQGTLVTVSS
hRAGE-Fc [2]
  IC50: 10.6 nM

B10: 3G5 scFv (scFv)
scFv: DIQMTQSPSSLSASVGDRVTITCRASQDVGIYVNWFQQKPGKAPRRLIYRATNLADGVPSRFSGSRSGTDFTLTISSLQPEDFATYYCLEFDEHPLTFGGGTKVEIKDGGGSGGGGSGGGGSSEVQLVESGGGLVQPGGSLRLSCAASGFTFNNYWMTWVRQAPGKGLEWVASIDNSGDNTYYPDSVKDRFTISRDNAKNSLYLQMNSLRAEDTAVYYCARGGDILDSLPYWGQGTLVTVSS
hRAGE-Fc [1]
  Fold gain scFv (hRAGE): 37.9 fold
hRAGE-Fc [2]
  IC50: 0.87 nM
hRAGE-Fc [3]
  IC50: 0.87 nM

B11: 3B7 scFv (scFv)
scFv: DIQMTQSPSSLSASVGDRVTITCRASQDVGIYVNWFQQKPGKAPRRLIYRATNLADGVPSRFSGSRSGTDFTLTISSLQPEDFATYYCLQFDSHPLTFGGGTKVEIKDGGGSGGGGSGGGGSSEVQLVESGGGLVQPGGSLRLSCAASGFTFNNYWMTWVRQAPGKGLEWVASIDNSGDNTYYPDSVKDRFTISRDNAKNSLYLQMNSLRAEDTAVYYCARGGDITTGFDYWGQGTLVTVSS
hRAGE-Fc [2]
  IC50: 7.35 nM

B12: 3D5 scFv (scFv)
scFv: DIQMTQSPSSLSASVGDRVTITCRASQDVGIYVNWFQQKPGKAPRRLIYRATNLADGVPSRFSGSRSGTDFTLTISSLQPEDFATYYCLEFDEHPLTFGGGTKVEIKDGGGSGGGGSGGGGSSEVQLVESGGGLVQPGGSLRLSCAASGFTFNNYWMTWVRQAPGKGLEWVASIDNSGDNTYYPDSVKDRFTISRDNAKNSLYLQMNSLRAEDTAVYYCARGGDIKVGLDLWGQGTLVTVSS
hRAGE-Fc [2]
  IC50: 3 nM

B13: 6A10 scFv (scFv)
scFv: DIQMTQSPSSLSASVGDRVTITCRASQDVGIYVNWFQQKPGKAPRRLIYRATNLADGVPSRFSGSRSGTDFTLTISSLQPEDFATYYCLQFDAHPLTFGGGTKVEIKDGGGSGGGGSGGGGSSEVQLVESGGGLVQPGGSLRLSCAASGFTFNNYWMTWVRQAPGKGLEWVASIDNSGDNTYYPDSVKDRFTISRDNAKNSLYLQMNSLRAEDTAVYYCARGGDITTGFDYWGQGTLVTVSS
hRAGE-Fc [2]
  IC50: 6.94 nM

B14: 6E5 scFv (scFv)
scFv: DIQMTQSPSSLSASVGDRVTITCRASQDVGIYVNWFQQKPGKAPRRLIYRATNLADGVPSRFSGSRSGTDFTLTISSLQPEDFATYYCLEFDEHPLTFGGGTKVEIKDGGGSGGGGSGGGGSSEVQLVESGGGLVQPGGSLRLSCAASGFTFNNYWMTWVRQAPGKGLEWVASIDNSGDNTYYPDSVKDRFTISRDNAKNSLYLQMNSLRAEDTAVYYCARGGDIRVMLDVWGQGTLVTVSS
hRAGE-Fc [2]
  IC50: 2.25 nM

B15: 3G3 scFv (scFv)
scFv: DIQMTQSPSSLSASVGDRVTITCRASQDVGIYVNWFQQKPGKAPRRLIYRATNLADGVPSRFSGSRSGTDFTLTISSLQPEDFATYYCLEFDEHPLTFGGGTKVEIKDGGGSGGGGSGGGGSSEVQLVESGGGLVQPGGSLRLSCAASGFTFNNYWMTWVRQAPGKGLEWVASIDNSGDNTYYPDSVKDRFTISRDNAKNSLYLQMNSLRAEDTAVYYCARGGDIKVSLDHWGQGTLVTVSS
hRAGE-Fc [2]
  IC50: 1.44 nM

B16: 6C11 scFv (scFv)
scFv: DIQMTQSPSSLSASVGDRVTITCRASQDVGIYVNWFQQKPGKAPRRLIYRATNLADGVPSRFSGSRSGTDFTLTISSLQPEDFATYYCLQYDAHPLTFGGGTKVEIKDGGGSGGGGSGGGGSSEVQLVESGGGLVQPGGSLRLSCAASGFTFNNYWMTWVRQAPGKGLEWVASIDNSGDNTYYPDSVKDRFTISRDNAKNSLYLQMNSLRAEDTAVYYCARGGDITTGFDYWGQGTLVTVSS
hRAGE-Fc [2]
  IC50: 9.03 nM

B17: 3D2 scFv (scFv)
scFv: DIQMTQSPSSLSASVGDRVTITCRASQDVGIYVNWFQQKPGKAPRRLIYRATNLADGVPSRFSGSRSGTDFTLTISSLQPEDFATYYCLEFDEHPLTFGGGTKVEIKDGGGSGGGGSGGGGSSEVQLVESGGGLVQPGGSLRLSCAASGFTFNNYWMTWVRQAPGKGLEWVASIDNSGDNTYYPDSVKDRFTISRDNAKNSLYLQMNSLRAEDTAVYYCARGGDIRVSLDHWGQGTLVTVSS
hRAGE-Fc [1]
  Fold gain scFv (hRAGE): 26 fold
hRAGE-Fc [2]
  IC50: 1.27 nM
hRAGE-Fc [3]
  IC50: 1.27 nM

B18: 3D6 scFv (scFv)
scFv: DIQMTQSPSSLSASVGDRVTITCRASQDVGIYVNWFQQKPGKAPRRLIYRATNLADGVPSRFSGSRSGTDFTLTISSLQPEDFATYYCLEFDEHPLTFGGGTKVEIKDGGGSGGGGSGGGGSSEVQLVESGGGLVQPGGSLRLSCAASGFTFNNYWMTWVRQAPGKGLEWVASIDNSGDNTYYPDSVKDRFTISRDNAKNSLYLQMNSLRAEDTAVYYCARGGDIRVMLDLWGQGTLVTVSS
hRAGE-Fc [2]
  IC50: 2.92 nM
